The data set deals with the molecule itself. The data set can be described thus: Western blot of conditioned media, reducing against non-reducing SDS-PAGE. The method, then: Samples were combined with 2× SDS sample buffer with β-mercapatoethanol and boiled for 2 minutes. After boiling, the samples were loaded onto either a 4-20% gradient gel or 6% SDS gel. Gels were then transferred to nitrocellulose using an Invitrogen blotting apparatus (Invitrogen, Carlsbad, Calif.) and transfer buffer as provided by Invitrogen (Invitrogen, Carlsbad, Calif.). Gels were transferred for 2 hours at 30V under constant current. Nitrocellulose blots were blocked in 5% non-fat dry milk for 1 hour at room temperature. The blots were incubated with 0.5 μg/mL peptide polyclonal antibody overnight at 4° C. After incubation with the primary antibody, the blots were washed 3 times for 10 minutes each in washing buffer (1% Triton×100 (v/v), 0.1% SDS (w/v) in PBS, calcium and magnesium free) and then incubated for 30 minutes with mouse anti rabbit IgG conjugated to horseradish peroxidase (Santa Cruz Biotech, Santa Cruz, Calif.). The blots were washed 3 times for 10 minutes each in wash buffer and developed with the chemiluminescence reagent, ECL. (Amersham, Piscataway, N.J.). The blots were exposed to Kodak film and developed using a film developer.
The conditioned media from both COS and HEK293 transfectants were analyzed by Western blot under reducing and non-reducing conditions to assess whether CLCA1 exists as a multimer in the secreted milieu. […]
In general terms: Immunoblotting shows a protein as a band on a membrane.

B1: human CLCA1 (Calcium Activated Chloride Channel 1) (other)
chain: NSLIQLNNNGYEGIVVAIDPNVPEDETLIQQIKDMVTQASLYLFEATGKRFYFKNVAILIPETWKTKADYVRPKLETYKNADVLVAESTPPGNDEPYTEQMGNCGEKGERIHLTPDFIAGKKLAEYGPQGRAFVHEWAHLRWGVFDEYNNDEKFYLSNGRIQAVRCSAGITGTNVVKKCQGGSCYTKRCTFNKVTGLYEKGCEFVLQSRQTEKASIMFAQHVDSIVEFCTEQNHNKEAPNKQNQKCNLRSTWEVIRDSEDFKKTTPMTTQPPNPTFSLLQIGQRIVCLVLDKSGSMATGNRLNRLNQAGQLFLLQTVELGSWVGMVTFDSAAHVQSELIQINSGSDRDTLAKRLPAAASGGTSICSGLRSAFTVIRKKYPTDGSEIVLLTDGEDNTISGCFNEVKQSGAIIHTVALGPSAAQELEELSKMTGGLQTYASDQVQNNGLIDAFGALSSGNGAVSQRSIQLESKGLTLQNSQWMNGTVIVDSTVGKDTLFLITWTTQPPQILLWDPSGQKQGGFVVDKNTKMAYLQIPGIAKVGTWKYSLQASSQTLTLTVTSRASNATLPPITVTSKTNKDTSKFPSPLVVYANIRQGASPILRASVTALIESVNGKTVTLELLDNGAGADATKDDGVYSRYFTTYDTNGRYSVKVRALGGVNAARRRVIPQQSGALYIPGWIENDEIQWNPPRPEINKDDVQHKQVCFSRTSSGGSFVASDVPNAPIPDLFPPGQITDLKAEIHGGSLINLTWTAPGDDYDHGTAHKYIIRISTSILDLRDKFNESLQVNTTALIPKEANSEEVFLFKPENITFENGTDLFIAIQAVDKVDLKSEISNIARVSLFIPPQTPPETPSPDETSAPCPNIHINSTIPGIHILKIMWKWIGELQLSIA
notes: 914 amino acids; also called hCLCA1; soluble CLCA1
On to B1, for which the binding result was “binds”.

(Values after patent publication US20040265314A1 (Pfizer, published 2004).)
